Measured values reported in paper PMC9482650, “Quantitative fragmentomics allow affinity mapping of interactomes” (Nature Communications, 2022).

T1: DLG3_1, Q92796
T1 sequence (Q92796 125-227, limits assumed, looked up): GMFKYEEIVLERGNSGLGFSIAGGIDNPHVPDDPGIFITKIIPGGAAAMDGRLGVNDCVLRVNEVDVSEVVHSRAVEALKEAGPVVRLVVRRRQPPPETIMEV

T2: APBA1_1, Q02410
T2 sequence (Q02410 651-752, limits assumed, looked up): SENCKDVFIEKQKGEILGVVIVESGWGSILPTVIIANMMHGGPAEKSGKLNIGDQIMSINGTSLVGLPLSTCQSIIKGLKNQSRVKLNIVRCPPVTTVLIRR

T3: RADIL, Q96JH8
T3 sequence (Q96JH8 971-1071, limits assumed, looked up): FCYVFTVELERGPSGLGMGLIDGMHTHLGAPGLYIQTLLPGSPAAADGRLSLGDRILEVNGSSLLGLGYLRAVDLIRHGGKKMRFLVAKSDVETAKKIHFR

T4: APBA1_2, Q02410
T4 sequence (Q02410 742-832, limits assumed, looked up): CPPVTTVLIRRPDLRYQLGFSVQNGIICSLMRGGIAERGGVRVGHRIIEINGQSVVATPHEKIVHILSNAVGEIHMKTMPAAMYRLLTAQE

T5: LNX2_2, Q8N448
T5 sequence (Q8N448 334-432, limits assumed, looked up): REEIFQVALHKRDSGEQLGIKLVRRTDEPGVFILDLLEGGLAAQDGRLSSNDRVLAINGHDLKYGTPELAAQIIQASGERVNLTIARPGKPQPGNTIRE

T6: MPP2, Q14168
T6 sequence (Q14168 180-250, limits assumed, looked up): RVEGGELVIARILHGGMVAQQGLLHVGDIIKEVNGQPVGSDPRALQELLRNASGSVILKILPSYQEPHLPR

T7: GRIP1_2, Q9Y3R0
T7 sequence (Q9Y3R0 145-248, limits assumed, looked up): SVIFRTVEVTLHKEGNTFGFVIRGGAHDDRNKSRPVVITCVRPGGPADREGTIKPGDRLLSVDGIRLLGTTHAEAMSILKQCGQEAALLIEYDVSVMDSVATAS

T8: TX1BP3, O14907
T8 sequence (O14907 10-122, limits assumed, looked up): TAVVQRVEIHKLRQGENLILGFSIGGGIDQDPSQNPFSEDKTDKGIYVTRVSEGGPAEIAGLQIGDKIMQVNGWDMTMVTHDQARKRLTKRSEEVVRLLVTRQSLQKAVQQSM

T9: DLG3_2, Q92796
T9 sequence (Q92796 221-321, limits assumed, looked up): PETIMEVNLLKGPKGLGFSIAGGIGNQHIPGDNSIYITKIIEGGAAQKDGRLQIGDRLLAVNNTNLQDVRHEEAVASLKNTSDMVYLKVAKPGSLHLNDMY

T10: MPDZ_5, O75970
T10 sequence (O75970 695-796, limits assumed, looked up): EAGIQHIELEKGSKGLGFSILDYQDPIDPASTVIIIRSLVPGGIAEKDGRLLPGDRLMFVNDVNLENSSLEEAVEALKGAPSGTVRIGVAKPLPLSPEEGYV

T11: SNTB1, Q13884
T11 sequence (Q13884 107-205, limits assumed, looked up): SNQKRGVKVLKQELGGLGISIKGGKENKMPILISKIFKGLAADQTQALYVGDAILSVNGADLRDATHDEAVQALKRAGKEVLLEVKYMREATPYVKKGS

T12: APBA3_1, O96018
T12 sequence (O96018 389-490, limits assumed, looked up): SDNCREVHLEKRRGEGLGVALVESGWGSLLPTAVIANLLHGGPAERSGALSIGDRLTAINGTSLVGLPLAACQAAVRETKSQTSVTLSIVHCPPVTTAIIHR

B1: WWTR1, Q9GZV5 (peptide)
chain: NKSEPFLTWL
B2: CAPN6, Q9Y6Q1 (peptide)
chain: VISSDDLTEL
B3: ZNF599, Q96NL3 (peptide)
chain: THHRKIHTRV
B4: CDK18, Q07002 (peptide)
chain: RGKNRRQSIF
B5: PLCB2, Q00722 (peptide)
chain: AKADAQESRL

Molecular target: T1, DLG3_1, Q92796
Experiment: holdup assay
Set-up: key: below the threshold = too weak to quantify, mostly under pKd 3.1 to 4
Conditions: plain residues with an end cap or a label only (N-terminal biotin on a linker: ado-ado)

pKd	Binder
below the threshold	B1
below the threshold	B2
4.48	B3
below the threshold	B4
below the threshold	B5

Molecular target: MAGI3_2, Q5TCQ9
Experiment: holdup assay
Set-up: key: below the threshold = too weak to quantify, mostly under pKd 3.1 to 4
Conditions: plain residues with an end cap or a label only (N-terminal biotin on a linker: ado-ado)

Sequence of MAGI3_2, Q5TCQ9 (Q5TCQ9 398-503): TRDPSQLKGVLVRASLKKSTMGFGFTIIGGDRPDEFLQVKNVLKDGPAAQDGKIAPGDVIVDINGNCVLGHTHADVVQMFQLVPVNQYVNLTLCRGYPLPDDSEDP

pKd	Binder
3.89	B1
below the threshold	B2
5.32	B3
below the threshold	B4
below the threshold	B5

Molecular target: T2, APBA1_1, Q02410
Experiment: holdup assay
Set-up: key: below the threshold = too weak to quantify, mostly under pKd 3.1 to 4
Conditions: plain residues with an end cap or a label only (N-terminal biotin on a linker: ado-ado)

pKd	Binder
4.11	B1
below the threshold	B2
below the threshold	B3
below the threshold	B4
below the threshold	B5

Molecular target: PICK1, Q9NRD5
Experiment: holdup assay
Set-up: key: below the threshold = too weak to quantify, mostly under pKd 3.1 to 4
Conditions: plain residues with an end cap or a label only (N-terminal biotin on a linker: ado-ado)

Sequence of PICK1, Q9NRD5 (Q9NRD5 17-115): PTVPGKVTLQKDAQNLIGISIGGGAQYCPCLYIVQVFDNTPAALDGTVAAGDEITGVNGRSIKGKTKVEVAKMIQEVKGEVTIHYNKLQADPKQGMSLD

pKd	Binder
below the threshold	B1
below the threshold	B2
below the threshold	B3
4.17	B4
below the threshold	B5

Molecular target: T3, RADIL, Q96JH8
Experiment: holdup assay
Set-up: key: below the threshold = too weak to quantify, mostly under pKd 3.1 to 4
Conditions: plain residues with an end cap or a label only (N-terminal biotin on a linker: ado-ado)

pKd	Binder
5.57	B1
below the threshold	B2
3.62	B3
below the threshold	B4
below the threshold	B5

Molecular target: DLG1_2, Q12959
Experiment: holdup assay
Set-up: key: below the threshold = too weak to quantify, mostly under pKd 3.1 to 4
Conditions: plain residues with an end cap or a label only (N-terminal biotin on a linker: ado-ado)

Sequence of DLG1_2, Q12959 (Q12959 314-412): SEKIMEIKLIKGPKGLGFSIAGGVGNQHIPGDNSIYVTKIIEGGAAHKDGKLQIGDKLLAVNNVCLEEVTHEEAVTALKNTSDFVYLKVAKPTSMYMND

pKd	Binder
3.59	B1
below the threshold	B2
5.53	B3
below the threshold	B4
below the threshold	B5

Molecular target: T4, APBA1_2, Q02410
Experiment: holdup assay
Set-up: key: below the threshold = too weak to quantify, mostly under pKd 3.1 to 4
Conditions: plain residues with an end cap or a label only (N-terminal biotin on a linker: ado-ado)

pKd	Binder
4.89	B1
3.79	B2
3.62	B3
3.47	B4
below the threshold	B5

Molecular target: T5, LNX2_2, Q8N448
Experiment: holdup assay
Set-up: key: below the threshold = too weak to quantify, mostly under pKd 3.1 to 4
Conditions: plain residues with an end cap or a label only (N-terminal biotin on a linker: ado-ado)

pKd	Binder
4.44	B1
below the threshold	B2
3.82	B3
3.58	B4
below the threshold	B5

Molecular target: T6, MPP2, Q14168
Experiment: holdup assay
Set-up: key: below the threshold = too weak to quantify, mostly under pKd 3.1 to 4
Conditions: plain residues with an end cap or a label only (N-terminal biotin on a linker: ado-ado)

pKd	Binder
3.62	B1
below the threshold	B2
below the threshold	B3
3.54	B4
below the threshold	B5

Molecular target: PDZRN4_1, Q6ZMN7
Experiment: holdup assay
Set-up: key: below the threshold = too weak to quantify, mostly under pKd 3.1 to 4
Conditions: plain residues with an end cap or a label only (N-terminal biotin on a linker: ado-ado)

Sequence of PDZRN4_1, Q6ZMN7 (Q6ZMN7 213-318): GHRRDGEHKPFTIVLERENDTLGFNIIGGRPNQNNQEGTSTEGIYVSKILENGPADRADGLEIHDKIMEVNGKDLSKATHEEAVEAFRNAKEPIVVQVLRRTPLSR

pKd	Binder
4.27	B1
below the threshold	B2
below the threshold	B3
below the threshold	B4
4.5	B5

Molecular target: T7, GRIP1_2, Q9Y3R0
Experiment: holdup assay
Set-up: key: below the threshold = too weak to quantify, mostly under pKd 3.1 to 4
Conditions: plain residues with an end cap or a label only (N-terminal biotin on a linker: ado-ado)

pKd	Binder
below the threshold	B1
below the threshold	B2
below the threshold	B3
below the threshold	B4
below the threshold	B5

Molecular target: Inadl_10, Q8NI35
Experiment: holdup assay
Set-up: key: below the threshold = too weak to quantify, mostly under pKd 3.1 to 4
Conditions: plain residues with an end cap or a label only (N-terminal biotin on a linker: ado-ado)

Sequence of Inadl_10, Q8NI35 (Q8NI35 1673-1763): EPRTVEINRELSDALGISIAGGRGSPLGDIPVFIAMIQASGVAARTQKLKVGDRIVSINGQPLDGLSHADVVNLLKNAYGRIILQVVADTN

pKd	Binder
4.63	B1
below the threshold	B2
below the threshold	B3
below the threshold	B4
below the threshold	B5

Molecular target: MAGI2_4, Q86UL8
Experiment: holdup assay
Set-up: key: below the threshold = too weak to quantify, mostly under pKd 3.1 to 4
Conditions: plain residues with an end cap or a label only (N-terminal biotin on a linker: ado-ado)

Sequence of MAGI2_4, Q86UL8 (Q86UL8 772-865): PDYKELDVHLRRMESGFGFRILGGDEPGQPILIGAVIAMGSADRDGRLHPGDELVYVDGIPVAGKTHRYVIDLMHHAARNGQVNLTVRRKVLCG

pKd	Binder
3.85	B1
below the threshold	B2
below the threshold	B3
below the threshold	B4
below the threshold	B5

Molecular target: T8, TX1BP3, O14907
Experiment: holdup assay
Set-up: key: below the threshold = too weak to quantify, mostly under pKd 3.1 to 4
Conditions: plain residues with an end cap or a label only (N-terminal biotin on a linker: ado-ado)

pKd	Binder
4.49	B1
below the threshold	B2
3.74	B3
below the threshold	B4
3.96	B5

Molecular target: T9, DLG3_2, Q92796
Experiment: holdup assay
Set-up: key: below the threshold = too weak to quantify, mostly under pKd 3.1 to 4
Conditions: plain residues with an end cap or a label only (N-terminal biotin on a linker: ado-ado)

pKd	Binder
below the threshold	B1
3.99	B2
5.26	B3
4.19	B4
below the threshold	B5

Molecular target: LNX1_2, Q8TBB1
Experiment: holdup assay
Set-up: key: below the threshold = too weak to quantify, mostly under pKd 3.1 to 4
Conditions: plain residues with an end cap or a label only (N-terminal biotin on a linker: ado-ado)

Sequence of LNX1_2, Q8TBB1 (Q8TBB1 371-470): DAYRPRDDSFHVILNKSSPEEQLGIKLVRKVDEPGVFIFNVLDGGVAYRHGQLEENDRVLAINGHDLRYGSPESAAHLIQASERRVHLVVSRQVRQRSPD

pKd	Binder
below the threshold	B1
below the threshold	B2
3.5	B3
below the threshold	B4
below the threshold	B5

Molecular target: T10, MPDZ_5, O75970
Experiment: holdup assay
Set-up: key: below the threshold = too weak to quantify, mostly under pKd 3.1 to 4
Conditions: plain residues with an end cap or a label only (N-terminal biotin on a linker: ado-ado)

pKd	Binder
below the threshold	B1
below the threshold	B2
3.55	B3
below the threshold	B4
below the threshold	B5

Molecular target: DLG4_3, P78352
Experiment: holdup assay
Set-up: key: below the threshold = too weak to quantify, mostly under pKd 3.1 to 4
Conditions: plain residues with an end cap or a label only (N-terminal biotin on a linker: ado-ado)

Sequence of DLG4_3, P78352 (P78352 306-403): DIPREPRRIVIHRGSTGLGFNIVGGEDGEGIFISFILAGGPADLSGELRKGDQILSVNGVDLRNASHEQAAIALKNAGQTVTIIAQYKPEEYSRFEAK

pKd	Binder
below the threshold	B1
below the threshold	B2
4.38	B3
3.7	B4
below the threshold	B5

Molecular target: LAP2, Q96RT1
Experiment: holdup assay
Set-up: key: below the threshold = too weak to quantify, mostly under pKd 3.1 to 4
Conditions: plain residues with an end cap or a label only (N-terminal biotin on a linker: ado-ado)

Sequence of LAP2, Q96RT1 (Q96RT1 other isoform, or with tags, fused parts or gaps): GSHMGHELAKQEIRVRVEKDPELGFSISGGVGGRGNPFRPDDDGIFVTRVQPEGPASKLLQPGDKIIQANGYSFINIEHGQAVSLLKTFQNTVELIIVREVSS

pKd	Binder
4.6	B1
below the threshold	B2
below the threshold	B3
3.74	B4
below the threshold	B5

Molecular target: CASK, O14936
Experiment: holdup assay
Set-up: key: below the threshold = too weak to quantify, mostly under pKd 3.1 to 4
Conditions: plain residues with an end cap or a label only (N-terminal biotin on a linker: ado-ado)

Sequence of CASK, O14936 (O14936 487-570): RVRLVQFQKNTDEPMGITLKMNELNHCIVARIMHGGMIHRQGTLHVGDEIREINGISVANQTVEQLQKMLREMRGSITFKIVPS

pKd	Binder
below the threshold	B1
below the threshold	B2
below the threshold	B3
below the threshold	B4
below the threshold	B5

Molecular target: T11, SNTB1, Q13884
Experiment: holdup assay
Set-up: key: below the threshold = too weak to quantify, mostly under pKd 3.1 to 4
Conditions: plain residues with an end cap or a label only (N-terminal biotin on a linker: ado-ado)

pKd	Binder
3.79	B1
below the threshold	B2
4.36	B3
below the threshold	B4
4.43	B5

Molecular target: ARHGEF12, Q9NZN5-2
Experiment: holdup assay
Set-up: key: below the threshold = too weak to quantify, mostly under pKd 3.1 to 4
Conditions: plain residues with an end cap or a label only (N-terminal biotin on a linker: ado-ado)

Sequence of ARHGEF12, Q9NZN5-2 (Q9NZN5 other isoform, or with tags, fused parts or gaps): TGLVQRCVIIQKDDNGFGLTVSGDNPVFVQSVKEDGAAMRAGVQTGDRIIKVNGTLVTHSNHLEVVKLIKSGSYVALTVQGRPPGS

pKd	Binder
4.95	B1
4.91	B2
4.3	B3
below the threshold	B4
3.93	B5

Molecular target: TJP2_1, Q9UDY2
Experiment: holdup assay
Set-up: key: below the threshold = too weak to quantify, mostly under pKd 3.1 to 4
Conditions: plain residues with an end cap or a label only (N-terminal biotin on a linker: ado-ado)

Sequence of TJP2_1, Q9UDY2 (Q9UDY2 24-128): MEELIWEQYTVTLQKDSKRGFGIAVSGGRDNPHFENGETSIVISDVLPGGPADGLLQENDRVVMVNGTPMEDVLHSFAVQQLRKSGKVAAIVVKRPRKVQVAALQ

pKd	Binder
5.59	B1
below the threshold	B2
4.6	B3
3.47	B4
below the threshold	B5

Molecular target: T12, APBA3_1, O96018
Experiment: holdup assay
Set-up: key: below the threshold = too weak to quantify, mostly under pKd 3.1 to 4
Conditions: plain residues with an end cap or a label only (N-terminal biotin on a linker: ado-ado)

pKd	Binder
3.5	B1
below the threshold	B2
below the threshold	B3
below the threshold	B4
below the threshold	B5

Molecular target: TJP1_2, Q07157
Experiment: holdup assay
Set-up: key: below the threshold = too weak to quantify, mostly under pKd 3.1 to 4
Conditions: plain residues with an end cap or a label only (N-terminal biotin on a linker: ado-ado)

Sequence of TJP1_2, Q07157 (Q07157 181-274): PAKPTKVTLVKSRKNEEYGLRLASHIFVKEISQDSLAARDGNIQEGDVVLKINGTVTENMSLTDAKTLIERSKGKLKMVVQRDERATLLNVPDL

pKd	Binder
below the threshold	B1
below the threshold	B2
3.62	B3
below the threshold	B4
below the threshold	B5

Molecular target: DLG2_2, Q15700
Experiment: holdup assay
Set-up: key: below the threshold = too weak to quantify, mostly under pKd 3.1 to 4
Conditions: plain residues with an end cap or a label only (N-terminal biotin on a linker: ado-ado)

Sequence of DLG2_2, Q15700 (Q15700 189-283): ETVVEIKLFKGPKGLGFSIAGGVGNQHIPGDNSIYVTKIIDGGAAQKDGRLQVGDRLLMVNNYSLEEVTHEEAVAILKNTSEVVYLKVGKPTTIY

pKd	Binder
below the threshold	B1
below the threshold	B2
5.38	B3
3.5	B4
below the threshold	B5
